Experimental data published in patent publication US20250243261A1 (CZ BIOHUB SF, published 2025).

B1: mAb114 UCA VH P60A-G61D / VL V43A IgG (antibody, V domains shown)
VH: EVQLVESGGGLVQPGGSLRLSCAASGFTFSSYDMHWVRQATGKGLEWVSAIGTAGDTYYADSVKGRFTISRENAKNSLYLQMNSLRAGDTAVYYCVRSDRGVAGLFDSWGQGTLVTVSS
VL: DIQMTQSPSSLSASVGDRVTITCRASQGISNYLAWYQQKPGKAPKLLIYAASTLQSGVPSRFSGSGSGTDFTLTISSLQPEDVATYYCQKYNSAPLTFGGGTKVEIK
B2: mAb114 UCA VH G88E / VL V43A IgG (antibody, V domains shown)
VH: EVQLVESGGGLVQPGGSLRLSCAASGFTFSSYDMHWVRQATGKGLEWVSAIGTAGDTYYPGSVKGRFTISRENAKNSLYLQMNSLRAEDTAVYYCVRSDRGVAGLFDSWGQGTLVTVSS
VL: DIQMTQSPSSLSASVGDRVTITCRASQGISNYLAWYQQKPGKAPKLLIYAASTLQSGVPSRFSGSGSGTDFTLTISSLQPEDVATYYCQKYNSAPLTFGGGTKVEIK
B3: mAb114 UCA VH T41P-P60A-G61D-E72D-G88E-V96A IgG (antibody, V domains shown)
VH: EVQLVESGGGLVQPGGSLRLSCAASGFTFSSYDMHWVRQAPGKGLEWVSAIGTAGDTYYADSVKGRFTISRDNAKNSLYLQMNSLRAEDTAVYYCARSDRGVAGLFDSWGQGTLVTVSS
VL: DIQMTQSPSSLSASVGDRVTITCRASQGISNYLAWYQQKPGKVPKLLIYAASTLQSGVPSRFSGSGSGTDFTLTISSLQPEDVATYYCQKYNSAPLTFGGGTKVEIK
B4: mAb114 UCA VH P60A-G61D-G88E-V96A / VL V43A IgG (antibody, V domains shown)
VH: EVQLVESGGGLVQPGGSLRLSCAASGFTFSSYDMHWVRQATGKGLEWVSAIGTAGDTYYADSVKGRFTISRENAKNSLYLQMNSLRAEDTAVYYCARSDRGVAGLFDSWGQGTLVTVSS
VL: DIQMTQSPSSLSASVGDRVTITCRASQGISNYLAWYQQKPGKAPKLLIYAASTLQSGVPSRFSGSGSGTDFTLTISSLQPEDVATYYCQKYNSAPLTFGGGTKVEIK
B5: mAb114 UCA VH P60A-G61D IgG (antibody, V domains shown)
VH: EVQLVESGGGLVQPGGSLRLSCAASGFTFSSYDMHWVRQATGKGLEWVSAIGTAGDTYYADSVKGRFTISRENAKNSLYLQMNSLRAGDTAVYYCVRSDRGVAGLFDSWGQGTLVTVSS
VL: DIQMTQSPSSLSASVGDRVTITCRASQGISNYLAWYQQKPGKVPKLLIYAASTLQSGVPSRFSGSGSGTDFTLTISSLQPEDVATYYCQKYNSAPLTFGGGTKVEIK
B6: mAb114 UCA VH G88E IgG (antibody, V domains shown)
VH: EVQLVESGGGLVQPGGSLRLSCAASGFTFSSYDMHWVRQATGKGLEWVSAIGTAGDTYYPGSVKGRFTISRENAKNSLYLQMNSLRAEDTAVYYCVRSDRGVAGLFDSWGQGTLVTVSS
VL: DIQMTQSPSSLSASVGDRVTITCRASQGISNYLAWYQQKPGKVPKLLIYAASTLQSGVPSRFSGSGSGTDFTLTISSLQPEDVATYYCQKYNSAPLTFGGGTKVEIK
B7: mAb114 UCA VH V96A IgG (antibody, V domains shown)
VH: EVQLVESGGGLVQPGGSLRLSCAASGFTFSSYDMHWVRQATGKGLEWVSAIGTAGDTYYPGSVKGRFTISRENAKNSLYLQMNSLRAGDTAVYYCARSDRGVAGLFDSWGQGTLVTVSS
VL: DIQMTQSPSSLSASVGDRVTITCRASQGISNYLAWYQQKPGKVPKLLIYAASTLQSGVPSRFSGSGSGTDFTLTISSLQPEDVATYYCQKYNSAPLTFGGGTKVEIK
B8: mAb114 UCA VL K90Q IgG (antibody, V domains shown)
VH: EVQLVESGGGLVQPGGSLRLSCAASGFTFSSYDMHWVRQATGKGLEWVSAIGTAGDTYYPGSVKGRFTISRENAKNSLYLQMNSLRAGDTAVYYCVRSDRGVAGLFDSWGQGTLVTVSS
VL: DIQMTQSPSSLSASVGDRVTITCRASQGISNYLAWYQQKPGKVPKLLIYAASTLQSGVPSRFSGSGSGTDFTLTISSLQPEDVATYYCQQYNSAPLTFGGGTKVEIK
B9: mAb114 UCA VH P60A-G61D / VL V43A Fab (Fab, V domains shown)
VH: EVQLVESGGGLVQPGGSLRLSCAASGFTFSSYDMHWVRQATGKGLEWVSAIGTAGDTYYADSVKGRFTISRENAKNSLYLQMNSLRAGDTAVYYCVRSDRGVAGLFDSWGQGTLVTVSS
VL: DIQMTQSPSSLSASVGDRVTITCRASQGISNYLAWYQQKPGKAPKLLIYAASTLQSGVPSRFSGSGSGTDFTLTISSLQPEDVATYYCQKYNSAPLTFGGGTKVEIK
B10: mAb114 UCA VL V43A IgG (antibody, V domains shown)
VH: EVQLVESGGGLVQPGGSLRLSCAASGFTFSSYDMHWVRQATGKGLEWVSAIGTAGDTYYPGSVKGRFTISRENAKNSLYLQMNSLRAGDTAVYYCVRSDRGVAGLFDSWGQGTLVTVSS
VL: DIQMTQSPSSLSASVGDRVTITCRASQGISNYLAWYQQKPGKAPKLLIYAASTLQSGVPSRFSGSGSGTDFTLTISSLQPEDVATYYCQKYNSAPLTFGGGTKVEIK
B11: mAb114 UCA VH E72D IgG (antibody, V domains shown)
VH: EVQLVESGGGLVQPGGSLRLSCAASGFTFSSYDMHWVRQATGKGLEWVSAIGTAGDTYYPGSVKGRFTISRDNAKNSLYLQMNSLRAGDTAVYYCVRSDRGVAGLFDSWGQGTLVTVSS
VL: DIQMTQSPSSLSASVGDRVTITCRASQGISNYLAWYQQKPGKVPKLLIYAASTLQSGVPSRFSGSGSGTDFTLTISSLQPEDVATYYCQKYNSAPLTFGGGTKVEIK
B12: mAb114 UCA VH V96A / VL V43A IgG (antibody, V domains shown)
VH: EVQLVESGGGLVQPGGSLRLSCAASGFTFSSYDMHWVRQATGKGLEWVSAIGTAGDTYYPGSVKGRFTISRENAKNSLYLQMNSLRAGDTAVYYCARSDRGVAGLFDSWGQGTLVTVSS
VL: DIQMTQSPSSLSASVGDRVTITCRASQGISNYLAWYQQKPGKAPKLLIYAASTLQSGVPSRFSGSGSGTDFTLTISSLQPEDVATYYCQKYNSAPLTFGGGTKVEIK
B13: mAb114 UCA VH T41P-P60A-G61D-E72D-G88E-V96A / VL V43A IgG (antibody, V domains shown)
VH: EVQLVESGGGLVQPGGSLRLSCAASGFTFSSYDMHWVRQAPGKGLEWVSAIGTAGDTYYADSVKGRFTISRDNAKNSLYLQMNSLRAEDTAVYYCARSDRGVAGLFDSWGQGTLVTVSS
VL: DIQMTQSPSSLSASVGDRVTITCRASQGISNYLAWYQQKPGKAPKLLIYAASTLQSGVPSRFSGSGSGTDFTLTISSLQPEDVATYYCQKYNSAPLTFGGGTKVEIK
B14: mAb114 WT IgG (antibody, V domains shown)
VH: EVQLVESGGGLIQPGGSLRLSCAASGFALRMYDMHWVRQTIDKRLEWVSAVGPSGDTYYADSVKGRFAVSRENAKNSLSLQMNSLTAGDTAIYYCVRSDRGVAGLFDSWGQGILVTVSS
VL: DIQMTQSPSSLSASVGDRITITCRASQAFDNYVAWYQQRPGKVPKLLISAASALHAGVPSRFSGSGSGTHFTLTISSLQPEDVATYYCQNYNSAPLTFGGGTKVEIK

What follows are binders tested against T1, Ebola GP ectodomain (Mayinga, Zaire, 1976) with the mucin-like domain deleted (Zaire ebolavirus (Mayinga, 1976), UniProt Q05320 33-650).
In the case of B1, the Kd is reported as 5 nM.
In the case of B2, the Kd is reported as 13 nM.
Work on B3 yielded a Kd of 33 nM.
B4 showed a Kd of 13 nM.
With B5 the Kd was 120 nM.
Work on B6 yielded a Kd of 150 nM.
B7 was tested, and the Kd was 110 nM.
B8 gave a Kd of 620 nM.
B9 was tested, and the Kd was 480 nM.
For B10, the Kd was 60 nM.
B11 gave a Kd of 200 nM.
B12 was tested, and the Kd was 22 nM.
For B13, the Kd was 15 nM.

Target: T1, Ebola GP ectodomain (Mayinga, Zaire, …)
Remark: another data set of the same source
B1 was tested, and the “fold improvement in Kd over wildtype” value was 90 fold.
B14 was tested, and the Kd was < 1 pM.
